The data set can be described thus: label from the status in PepcDB records.
For the sequence “MGVLRPAAPITGTPNTRLTPVRRRLPTAEAKPTPRFNTPTNKLPEQMSSESPRNPLLDTWTETSSHMFNSVVAANRAAFAAFGVQQEEENGVTPAERIEPDEDLPEWHVSISEEHPGRLGVGDHVDFTKTISEHDVQQFAAASGDTNPLHLDDEFAEQTRFRGRIAHGTLVGSLISAALARLPGLTIYLSQDLEFHNPVRIGDRLTAECEIVEDLGDEQYRLTTRVLADDEVVIDGEAVVLIDDLPE”, the protein production entry was “failed”.

For the sequence “MGVNMRAETESRIFSVDEYVRPSNGEPIRSVVLETNDSVVVVWHAHPGQEIASHVHPHGQDTWTVISGEAEYHQGNGIVTHLKAGDIAIAKPGQVHGAMNSGPEPFIFVSVVAPGNAGFALAEK”, the protein production entry is listed as “not failed”.

Take “MGVPEPRPDWSRRLLGQGEAPDPRFTLANERTFLAWVRTALALLGGAIAIETFAGHVLETPLRLWLVAGLMLLSALLSAGACLRWLRVERALRRRRPLPLPALVPLLALGCLVAVLLAGLVLWPRWHG”: the protein production entry is “failed”.

For the sequence “MGVQSAVRVHRAISEIGQDAWDACAASTGDPFVSYDFLSILEESGCVAARTGWAPQHLTVLDEADQVAGVMPLYLKSHSQGEYVFDHSWADAYERAGGRYYPKLQCSSPFSPVTGSRLIVRPDIDAAEGRSALMGGALTLCERMGASSLHVTFPVEDQWRWMGERGMLLRQDQQYHWENRGYETFDDFLGALSANRRKTIRRERRDAQEGLEIVALTGADLTEDHWDAFFAFYMDTGGRKWGRPYLNRPFFSLLGQRMADKVLLILARRPGGPFIAGALNLLGRDCLYGRHWGCVEDAPFLHFELCYYQAIEHAIRLGLPRVEAGAQGQHKIARGYLPSAVYSAHWIADPMLREPVARYLERERAAVESDMEMLTEEYSPFREER”, the protein production result is listed as “failed”.

“MGWCVMAVLVDSETRVLVQGITGREGSFHAKAMLEYGTKVVAGVTPGKGGSEVHGVPVYDSVKEALAEHPEINTSIVFVPAPFAPDAVYEAVDAGIRLVVVITEGIPVHDTMRFVNYARQKGATIIGPNCPGAITPGQAKVGIMPGHIFKEGGVAVVSRSGTLTYEISYMLTRQGIGQSTVIGIGGDPIVGLSFTEALKLFQEDPQTEALVLIGEIGGDMEERAAEMIKKGEFTKPVIAYIAGRTAPPEKRMGHAGAIIMMGTGTYEGKVKALREAGVEVAETPFEVPELVRKALRR”: the protein production entry is recorded as “not failed”.

Regarding “MGWLFLLLAVASEAFSHVALKATDGLSHLIPNVIVITGHLGAFYFLSQAMKTLPVGIAHASWAGLAIIAVTLISSAFYHQHLDNKIWLGIGFISIGIAIINLSSTPHVH”, the protein production entry is “failed”.

For “MGYCQDDQLVNKICDLYEKISKLETLKPCEDVDTLFKQLVSTCIPPNPNIDVTKMSENIQEMRSNLIKICGEAEGYLEHHFSSILTSFEDNPLHHLNLFPYYNNYLKLSKLEFDLLEQNLNGFVPRTVAFIGSGPLPLTSVVLASSHLKDSIFHNFDIDPSANMVAARLVSSDPDLSQRMFFHTVDIMDVTESLKGFDVVFLAALVGMDKKEKVKVVEHLEKHMSPGALLMLRSAHGPRAFLYPIVEPCDLEGFEVLSVYHPTDEVINSIVISRKLGEDANGVVHDHIDQASDLACNCSKIHVIMNKKKSIIEEFAGANEEQLT”, the protein production entry was “failed”.

On to “MGYGKILVALDRSELAKEVLQQAIALGQKESSQLMVFYCIPVDSQDLSIYPSFYGEAAIGFSQIIKEHLEEQQTEAREWLQSIVQQVQEDGVACEWDVKVGEPGRWIRDMAKNWDADLVVLGRRGLKGLAEVFLGSVSSYVIHHVQCSVLIVQH”, for which the protein production entry is given as “failed”.

For the sequence “MGYKDEIGVIGIDDAPFNKFDKEALIVGTYMRGNKLVDEISFKKIEKDGFDSTEKILKIVKDKHFTKINAIFLDGVTFGGFNIADIVKIYNETKIPVIAVMEKEPDLLKMKSALKKYFFDFPEKIEMLESFPKPEPFENIFIQCIGISFEDACKLIKKTRLRSKIPECLRISHLVGRGFLNME”, the protein production entry is “failed”.

For “MGYSGKPHHQLDGEIRESTDGKKWVIAGIPSRSPLKQINLSPGVTVTETEEQDQCPTTPTAVSVRIPRVPPCPAAPKKRKPSLKCSYVTVTRDYFSPPDLETVFIQRASY”, the protein production result is “failed”.

For “MGYTLAEFLAHAIALETEAAERYVELADMMEAHNNLDTATVFRDMARFSTLHGDEIKQRSRALELPKLMSWQYRWKTPPEVGDENDIHYLMTPYHALRYARDNEIRGMEYYKEAAANSADPEVKRLGADFAAEEAEHVVALDKWIEKTPRPSITWSEDADPAQCVD”, the protein production result is on record as “not failed”.

“MHAELYRTRKRWYESAWPGAGFWRGANDTLPVTNYITYPANFDQPDGQSLTPLTMAAMMGNVKFVKTLLSHYDVDLDRECNVIYDGMVVYGATALWVAAGMGHLQIVKMLVQAGAAINHNTKAQSSPLRAACYEGRLDIVEFLIDNGADVNATNLFNNNTLMIAAYKGHHLVVKTLLQNGSRANDQALCGATALHYAAESGHLDVVVALLDHGATLKKNELGITPALQAAERLHEDVLEAFIERPELMSLEEQITALELLGATYANDKIKYDVNKAYGYLLRAMQLRYSNPRGVIRKRVQPTVPAYDNWLETENLPELYAIKLNHHSIHMESLAIRERILGRNNPELPQAIIYRGAVMADQGRFYQCQVLWNYAIDLRMRNNVSVDRDLLRFAQLFAQILRVENHNLTLDHVLPVLAKCQQEIENNKFKIKEAKPNACPSLWQDQNNQNCITALYLIKIVTHLARRKKDQNIDEEHIQQLFLVVRKFIQNDTRLQDGQTLLHIAVNGVMPVDEFYTNEMCRFPCYATALVLVHCGASVVAVDSDRNTPLHILVTKVNTTQDRQAEMARILELFVEAGAHLDAVNAAGQTAATACKLPILANRLHAHQNAHTSLKCLAARSIATNRLNFKGLIPTQLEAFIQMHSVRKVLP”: the protein production result was “failed”.

For “MHAFPLTLDNRLAEALPLWRNLARTDRAPRRNIDLADWKADWRELIAALDRFSRSHGYRQPFAAQGHAALENAWAWGQAAENASTLLLKAIDRGLAGAELRSIYLETAALWLDYSRLLGAARDSLREQGEVDFETAPALAPRTGQYPFALQLLAMGVLLDAQELIPALVEEVLQFDTDRLLDYLGAAALGLTSASEETFHPRPFGQLRAFFEEADGSDAQALAPYLQSQYREFFQLSPKAQKKTRRLTGPYAWGWWAMEVSALGVLYGWDDGVLRASPHYLGDLVDYARARGDA”, the protein production entry is “not failed”.

In the case of “MHCDDVMLPAALHRESCPAPEGVVTVADTTRNASGHARPRISIIIPAWNIAPWIGQTLRSILSQTVDDFECIVIDDGSTDGTAQVVASVADPRIRCIRQPNAGVSAARNRGIAEAQGAFITFLDGDDYWLPCFLETLLPPLLTRPEVDLVYCGMTMFMDDDGTVKPQPWGNVHATGNVWWDMLSDSVMLMGAWLARAEVVKGCRPFDPTLRVGEDRDFLLSMLEDIYHQRHHEAVGIDARLLRYRQRRGSGVRQVADALQCEWHMMDRHLRHEGIPPAVRRRAYSDLAFKMGVIAAFGARDIALALRWYGKAFALCPMNGNLYWLPLRKMFLSLRPRRRLHMKVLFLSARADFGGGPEHVLQLLRRLPPDVEAAVACPEDVPYWERFRNIVGDDNMFSMPHRAFTLEAVARLRRFCRKRGFDVLHAHGKGAGLYARVLSLLCGIPSVYTFHGVHLGGYGPLKRWLYGAYERAASWCTRRGIAVSRGERDAIEAHGLMPASKVSVIMNGVEMPEGTAPRPAGPPWLVVSFSRFDMQKNSLFLLDVARALQEQGRLDGFRFLLVGDGPDRARLLEQAAAQGLGDRVSCPGATPTPHEAYAGALCYFSSSRWEGMPLAVLEAMAHGLPVVATDVVGNRDAVADGVTGLLYPEGDAGAAARGLVRLADEAALWAAMAHEARAWVATRHDVQRMADRTFHELRKACGRA”, the protein production entry is listed as “failed”.

Regarding “MHCNDGGPATLGLFSDSDLQQPARVEVLGPQSRVLRGFALPWVEALLPQLDAVLAAAPFRQMQTPGGFTMSVGLSSCGQLGWTTDRSGYRYSPIDPQSQRPWPALPKVFQELAEAAAEAAGFPGFAPDSCLINCYRPGAKMSLHQDKNERDYSAPIVSLSLGLPAIFLFGGRQRSDKSQRVALLHGDVVVWGGVDRLRYHGVLALKDGHHPLLGQQRINLTLRRAGLEHHHHHH”, the protein production entry is “failed”.

In the case of “MHCRIRNTISCSNYIFSAVWNFLISVFINKTNFNNSVYCRIFKVSIGLRKSISSTTRTRWVPVVFICSRSTNRWTGARSVNPIRNLEHHHHHH”, the protein production entry is recorded as “failed”.

As for “MHEIFTMMLAVYDRAALMLICLFFLIRLRLFRELLHKSAHTPKELLAVTAIFSLFALFSTWSGVPVEGSLVNVRIIAVMSGGILFGPWVGAIVGAIAGVHRYLIDIDGVTAVPCFITSIVAGLLSGLINRKVAREQRWKIGILAGMMCETLTMILVVVWAPSLSLGVDIVSKIGIPMILGSVCIGFIVLLVQSVEGEKEASAARQAKLALDIANKTLPLFRHVNSDSLRQVCEIIRRDITADAVAITNTEHVLAYVGVGEANYQRHDDMISPTTRQAIRYGKIIIKNNDEAHRTPEIHSLMVIPLWEKGVVTGTLKIYYCHAHRITSTLQEMAIGLSQIISTQLEVSRAEQLREMANKAELRALQSKINPHFLFNALNAISSSIRLNPDTARQLIFNLSRYLRYNIELKDDEQIDIKRELYQIKDYIAIEQARFGDKLTVIYDIDDDVSCVIPSLLIQPLVENAIVHGIQPCKGKGVVTIGINECGNRVRISVRDTGNGIDPAVVARVEADEMPGNKIGLLNVHHRVKLLYGEGLHIRNLTPGTEIAFYVPNNSTPQALTESLLS”, the protein production entry was “failed”.

With “MHESMREIAERATFQSFANCYRREIDPGMPSQHRPECGDRRTYVEWSCPMAAATLRAEVERESLCGPFRFGRVFICRAPDNAWHEIAPLRALYLMVQECYSGIGAARAEALRNEEAELLGRVLASYQCIADSLQRSSGEAGRTFLDGEQSLMFGHWLHPTPKSRQGMADWQQPTYAPEHRGQFQLTYFAVDAALLRYGSAGDVSVSGILETLLPEADRPTLRPGEALIPLHPMQAEAVMLSPDIAELAREGRLRRLGPFGAEFSPTSSVRTVYSPAIPWMLKFSLPVRITNSLRINRMPELKAGVAMSRLFARTDFLARHPCFRLIRDPAYLTLGLPGRTESGFEIIFRENPFTTGNETKGITIAALTADPPPHARSRLDVLVREYAAQQGLPVASACRHWFSAYLDCALDPLVRLYNELGVALEAHQQNVLLDVSSGLPTASYYRDNQGFYLSNAHRDRLVSLVPETAEIGGLYFDDHVIQERFAYYLIVNQICSMIARMGQDRLIDEEALLIMLRERLNGLARELAGVGRDFASGIVDRPTVAAKANLLTRMLDIDELEAEDGRAIYVQLPNPLFGDRRSARRGEARAASR”, the protein production entry is “failed”.

Regarding “MHEWGLSEELKIQTKQMIEIAEKELSIMRNAIDKEDECILCKMEDIHHMLANVQTLAATYYIQAYLSPYTESSSFITTAIQHLSARKHGALIVVERNETLEALIQTGTTLNAHLTAPLLESIFYPGNPLHDGAVLVKNNHIVSAANILPLTKSTEVDPELGTRHRAAIGLSEKSDALILVVSEETGRTSFALNGILYTISL”, the protein production result is “not failed”.

As for “MHFRLILSMIVVTHTAVVQVLIHMEWIADPSIWAGLVTLVVIELVLGIDNLVFIAILAEKLPPAQRDRARITGLMLAMVMRLLLLASISWLVTLTKPLIVFHDFSFSARDLIMLFGGLFLLFKATVELNERLEGKDSDNPTQRKGAKFWAVVAQIVVLDAIFSLDSVITAVGMVDHLAVMMAAVVIAISLMLMASKALTRFVNSHPTIVILCLSFLLMIGFSLIAEGFSFIIPKGYLYAAIGFSVMIEALNQLAQFNRRRFLSANMTLRQRTTEAVMNLLSGQKEKAELDADTASLVADQDQHPLFNPQERLMIERVLNLNQRSVSSIMTSRHDIERINLSAPEEEIRSLVEKNQHTRLVVTGGKDNEDLLGVVHVIDLLQQSLRQEPLDLQALVRQPLVFPEGLPLLSALEQFRQARTHFAFVVDEFGSVEGIVTLSDVMETIAGNLPNEVEEIDARHDIQHHQDGSWTVNGHMPLEDLVQYVPLPLDDKREYHTVAGLLMEYLQHVPQVGETIEIDGYTLRTLQVDSHRVQKVQIVPPVKQDELDYEV”, the protein production result is reported as “failed”.

The values are drawn from a protein production outcome set (Wang et al. 2014).
